The target in the test is T1, human corticotropin-releasing hormone receptor 1 (CRHR1) (human, UniProt P34998 24-415).
T1 sequence (looked up): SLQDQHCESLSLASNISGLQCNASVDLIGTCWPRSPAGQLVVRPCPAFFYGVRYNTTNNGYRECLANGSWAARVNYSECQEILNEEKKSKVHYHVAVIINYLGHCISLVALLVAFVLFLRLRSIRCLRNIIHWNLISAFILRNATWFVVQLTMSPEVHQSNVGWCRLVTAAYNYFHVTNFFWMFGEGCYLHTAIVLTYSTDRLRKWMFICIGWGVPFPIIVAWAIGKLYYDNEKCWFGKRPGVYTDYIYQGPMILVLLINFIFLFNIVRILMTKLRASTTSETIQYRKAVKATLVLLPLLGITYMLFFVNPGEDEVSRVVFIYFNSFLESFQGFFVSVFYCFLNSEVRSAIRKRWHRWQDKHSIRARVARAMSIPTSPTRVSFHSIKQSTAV
The test can be described thus: cell-based or functional assay.

*1 amine or outer side, *2 acyl side, *3 side chain or, on linkers, in order; H or OH if unused. Where no end group is shown, it is not given here. Side-chain parts run from the residue outwards. [ ]: non-standard residue; d: D form. The star is where a group is joined. C20 diacid = O=C(O)CCCCCCCCCCCCCCCCCCC(=O)*; C18 diacid = O=C(O)CCCCCCCCCCCCCCCCC(=O)*; γGlu = O=C(O)[C@H](CCC(=O)[*:2])N[*:1]; εLys = N[C@@H](CCCCN[*:1])C(=O)[*:2]; αMeL = CC(C)C[C@](C)(N)C(=O)O; AEEA = NCCOCCOCC(=O)O; Aib = CC(C)(N)C(=O)O; Ahx = NCCCCCC(=O)O; βAla = NCCC(=O)O Some results are limits rather than exact numbers.

B1: polypeptide comprising SEQ ID NO:5 (peptide)
peptide: Ac-GSPSIVTS[αMeL]DVPT[Aib][αMeL]LQKILEQERAEKARQQAK([γGlu-AEEA-Ahx-C20 diacid])EAAEILAQV-NH2
In the case of B1, the “hCRHR1 cAMP EC50” value was greater than 10 µM.

B2: polypeptide comprising SEQ ID NO:52 (peptide)
peptide: [γGlu]GSPSIVTS[αMeL]DVPT[Aib][αMeL]LEKILEQERAEKARQQATEAAEILAQV-NH2
modifications: not fully specified (residue 1, N-terminus)
In the case of B2, the “hCRHR1 cAMP EC50” value is 1.5 µM.

B3: polypeptide comprising SEQ ID NO:14 (peptide)
peptide: Ac-GSPSIVTS[αMeL]DVPT[Aib][αMeL]LQKILEQERAEKARQQAK([γGlu-Pro-Pro-Pro-εLys-C20 diacid])EAAEILAQV-NH2
As for B3, the “hCRHR1 cAMP EC50” value was greater than 10 µM.

B4: polypeptide comprising SEQ ID NO:13 (peptide)
peptide: Ac-GSPSIVTS[αMeL]DVPT[Aib][αMeL]LQKILEQERAEKARQQAK([γGlu-Pro-Lys-Glu-εLys-C20 diacid])EAAEILAQV-NH2
On to B4, for which the “hCRHR1 cAMP EC50” value is greater than 10 µM.

B5: polypeptide comprising SEQ ID NO:15 (peptide)
peptide: Ac-GSPSIVTS[αMeL]DVPT[Aib][αMeL]LQKILEQERAEKARQQAK([γGlu-Pro-Pro-Pro-Pro-Pro-Pro-C20 diacid])EAAEILAQV-NH2
As to B5, the “hCRHR1 cAMP EC50” value was greater than 10 µM.

B6: polypeptide comprising SEQ ID NO:9 (peptide)
peptide: Ac-GSPSIVTS[αMeL]DVPT[Aib][αMeL]LQKILEQERAEKARQQAK([AEEA-KEKEKE-γGlu-C20 diacid])EAAEILAQV-NH2
For B6, the “hCRHR1 cAMP EC50” value was greater than 10 µM.

B7: polypeptide comprising SEQ ID NO:12 (peptide)
peptide: Ac-GSPSIVTS[αMeL]DVPT[Aib][αMeL]LQKLLEQERAEKARQQAK([γGlu-AEEA-Lys-C18 diacid])EAAEILAQV-NH2
modifications: not fully specified
B7: the “hCRHR1 cAMP EC50” value was greater than 10 µM.

B8: polypeptide comprising SEQ ID NO:10 (peptide)
peptide: Ac-GSPSIVTS[αMeL]DVPT[Aib][αMeL]LQKILEQERAEKARQQAK([βAla-Ser-βAla-Ser-γGlu-C20 diacid])EAAEILAQV-NH2
For B8, the “hCRHR1 cAMP EC50” value was greater than 10 µM.

B9: polypeptide comprising SEQ ID NO:51 (peptide)
peptide: Ac-IVTS[αMeL]D[dV]PI[Aib][αMeL]LQIKLEQERAEKARQQAKENTEILAQV-NH2
modifications: not fully specified (residue 29)
Regarding B9, the “hCRHR1 cAMP EC50” value is 4.3 µM.

B10: polypeptide comprising SEQ ID NO:6 (peptide)
peptide: Ac-GSPSIVTS[αMeL]DVPT[Aib][αMeL]LQKILEQERAEKARQQAK([γGlu-GKEKEKE-C20 diacid])EAAEILAQV-NH2
Take B10: the “hCRHR1 cAMP EC50” value is greater than 10 µM.

B11: polypeptide comprising SEQ ID NO:11 (peptide)
peptide: Ac-GSPSIVTS[αMeL]DVPT[Aib][αMeL]LQKILEQERAEKARQQAK([γGlu-Pro-Lys-Glu-Ahx-C20 diacid])EAAEILAQV-NH2
For the molecule B11, the “hCRHR1 cAMP EC50” value was greater than 10 µM.

B12: polypeptide comprising SEQ ID NO:8 (peptide)
peptide: Ac-GSPSIVTS[αMeL]DVPT[Aib][αMeL]LQKILEQERAEKARQQAK([Gly-βAla-βAla-βAla-βAla-γGlu-C20 diacid])EAAEILAQV-NH2
Take B12: the “hCRHR1 cAMP EC50” value is greater than 10 µM.

B13: polypeptide comprising SEQ ID NO:16 (peptide)
peptide: Ac-GSPSIVTS[αMeL]DVPT[Aib][αMeL]LQKILEQERAEKARQQAK([γGlu-Pro-Glu-Pro-Glu-Pro-Glu-C20 diacid])EAAEILAQV-NH2
For B13, the “hCRHR1 cAMP EC50” value is greater than 10 µM.

B14: polypeptide comprising SEQ ID NO:7 (peptide)
peptide: Ac-GSPSIVTS[αMeL]DVPT[Aib][αMeL]LQKILEQERAEKARQQAK([Gly-βAla-βAla-βAla-γGlu-C20 diacid])EAAEILAQV-NH2
Regarding B14, the “hCRHR1 cAMP EC50” value is greater than 10 µM.
